Experimental data from US20250154494A1, “Microfluidic Co-Encapsulation Device and System and Methods for Identifying T-Cell Receptor Ligands” (JANSSEN BIOTECH, INC., priority 2021, published 2025).

Tests used:
Assay type in all cases: cell-based
[1] = test system: Jurkat and SKW3 reporter cells; test: Co-culture of TT2-expressing P10-NBV reporter Jurkat and SKW3 cells with cognate minigene-transduced B cells overexpressing Flag-tagged surface receptors; conditions: overexpression on minigene-transduced B cells
Description: For the purpose of testing the different Flag-tagged surface receptors, InFusion-based cloning (TAKARA) was used to replace the mTagBFP2 reporter with the human codon optimized coding sequence of each candidate surface receptor, N-terminally or C-terminally tagged with a flexible 6× Flag to face the extracellular space. Specifically, the coding region of CD40, CD58, CD80, CD83, CD86, OX40L and 4-1BBL were cloned and tested.
Co-culture experiments were done using round bottom 96 well plates. P10-NBV Jurkat and SKW3 reporter cells and B cells are seeded 1 to 1 ratio into each well. Next day the cells are spun down and stained for Flow cytometry.

[2] = test system: Jurkat cells; test: Droplet co-culture of B and T cells, CD69 surface expression by flow cytometry; conditions: EDTA without added calcium
Protocol: One day prior to encapsulation, BOLETH cells were cultured in the presence of cognate or negative control peptides at a final concentration of 1 μM. Cells were collected the next day, centrifuged at 300 g for 5 min, then resuspended in B-cell medium at a final concentration of 1.4×10^7 cells/ml. These were further supplemented with same peptide and with or without EDTA. TCR-expressing Jurkat cells were centrifuged at 300 g and resuspended in B-cell medium at a concentration of 4×10^7 cells/ml. These were then further supplemented with respective concentrations of calcium. BOLETH, Jurkat, and detergent-containing fractions were connected to the microfluidic chip as described. Pressures were applied using an OB1 MK3+ and the droplet emulsion was collected into a 1.5 ml reaction tube containing oil.
Droplets were incubated at 37° C. in a 5% CO2 humidified incubator. Following overnight incubation, droplet emulsions were disrupted by adding two volumes of Pico-Break 1 (SPHERE FLUIDICS). Tubes were quickly inverted several times and centrifuged for 15 s at 300 rpm to facilitate separation of the cell-containing fraction. […] Tubes were centrifuged for 5 min at 300 g and cell pellets were subsequently resuspended in 100 μl of FACS buffer and were analyzed via flow cytometry. […]

[3] = test system: T-cells expressing cognate TCR
[4] = test system: TCR signaling; test: Co-culture of Jurkat reporter cells carrying synthetic promoters with peptide-loaded B cells (GFP / HA reporter)
Protocol: Sleeping beauty transposon reporter constructs were transfected together with transposases into T cells, 5 to 1 ratio, using the Neon transfection system following the manufacturer's protocol. The voltages used for Jurkat cells were 1350V/[…]/3 pulse, and for SKW-3 cells 1500V, […] and 1 pulse were used as settings. 48-72 hours after transfection, the cells were selected using […] Blasticidin for Jurkat and […] Blasticidin for SKW-3 cells.
Co-culture experiments were performed using round-bottom 96-well plates. P10-NBV Jurkat and SKW-3 reporter cells and B cells were seeded at a 1:1 ratio into each well. For peptide co-culture experiments, either cognate peptide or mismatched peptide is added to each well and incubated for 16 hours. For minigene-based co-culture experiments, minigene-transduced B cells harboring either the cognate of mismatch minigenes were used. Next day the cells are spun down and stained for Flow cytometry.

[5] = test system: BOLETH cells; test: Labeling of BOLETH cells with scFv-containing supernatant of transfected HEK293 cells, flow cytometry; conditions: for signal strength in tandem (T2A) scFv constructs relative to single scFv constructs: αCD19-HA and αCD20-V5 in one expression construct
Description: Current generation T cell reporter systems consists of a cis-regulatory element comprising multiple copies of a synthetic promoter sequence (‘NBV’). […] The scFv is derived from a monoclonal αCD19-antibody (clone B43) binding to the B cell-specific transmembrane protein CD19, which is commonly used in monoclonal antibody-mediated immunotherapy (Uckun et al., 1988, Blood, 71(1):13-29). It is tagged with six HA epitope tags at its C-terminus, which facilitates its detection by flow cytometry. To optimize the current reporter and B cell labeling strategy, the potential of additional scFvs was tested. In particular, an αCD20-scFv derived from a human monoclonal antibody was evaluated that recognizes an epitope encompassing the membrane-proximal small-loop on the CD20 molecule, known as ofatumumab (clone 2F2) (Teeling et al., 2004, Blood, 104(6):1793-800). In order to test its functionality, scFv constructs were assembled in both the VH-VL and VL-VH configuration. The heavy and light chain domains were separated by a flexible polypeptide linker (G4S)3. To confirm that ofatumumab, as an scFv tagged with four copies of the V5 label, a small epitope-tag found on P and V proteins of the paramyxovirus, can efficiently label BOLETH cells and be detected by flow cytometry, the coding region was inserted into a CMV expression plasmid. HEK293 cells were transfected with the construct using TurboFect. As a negative control, HEK293 cells were transfected with a sfGFP-containing construct. Medium was exchanged 24 hours post-transfection. The scFv-containing supernatant (SN) was collected 72 hours post-transfection and was used to label BOLETH cells. Using fluorescent dye-conjugated antibodies recognizing the tagged scFvs, the amount of B cell bound scFv was measured by flow cytometry (FIG. 8A).
For optimizing scFv reporter constructs, constructs containing combinations of B43 and 2F2 tagged with either HA or V5 were cloned in pTwist CMV WPRE Neo BetaGlobin. For testing, HEK cells were transiently transfected with the plasmids using TurboFect (Fermentas). […]

Molecule: 4-1BBL: Flag-tagged surface receptor overexpressed on minigene-transduced B cells; SEQ ID NO:85
- minigene-based T cell activation [1]: potentiates minigene-based T cell activation

Molecule: O=C(O)CN(CCN(CC(=O)O)CC(=O)O)CC(=O)O [EDTA]
- T-cell activation in presence of EDTA (chelation of calcium from the media) [2]: T-cell activation is inhibited

Molecule: BT1 construct: minigene expression construct with first transmembrane domain of Bcap31 fused to the minigene N-terminus; SEQ ID NO:116 (DNA AVATFLYAEVFVVLLLCIPFI)
- T-cell activation with 400 AA minigene [3]: strong T-cell activation even with a 400 AA minigene
- stability of T-cell activation over time [3]: stable T-cell activation over time
- strength of minigene-induced T-cell activation [3]: strong T-cell activation, similar to the positive control
- presentation of the TetX_400_1 minigene relative to 2B construct ([3]; TT2 TCR): did not improve the presentation

B1: P10 promoter: synthetic TCR responsive promoter, SEQ ID NO:60 (nucleic acid)
DNA: AGAGATGGGCTAACAGGTATGAGCATGGGAAAAGCATGTTTCAAGAATTTGAGATGTATTTCCCAGAAAAGGAACATGATGAAAATGGTCAGAAAAGGCATTCTTAGGGTCCCCAGATGTCTGCCTTTTCCATTGATTTTCTTTCCTGGTTAATTGCGAGGCTTGCCTCAAGGTGGAAAACAGTATCGGTTTCCACTGGATCACTAGGTCACAGGGTTTGCCTTTTTCCAAACCTGCATCTCAATTTTACCTATGATTTGCATTAAATAACTTTGGAAAAATTGAAGTTCTTGAGAAGCCACCGCGCCCGGCCTCCTCTCCTTTTCCAAATTTATACATTTTGATTGGTGGGGAGATTCCATTATAGGGGCTGGAAAACCCCTTTACCATACCATGAATGTAACTGTACTGTTACAAAGTGGAAAATAACAGTTTCCACTTTTCGCAGCTCTTTGAGAGCAGGACTCTATTTTCCAGTCTCTTTATAAGCTTCATTCATAGTGAAGCTAACAGAAGTTTTTCCATGGTTAGATTGTGCACCGGGCTGTTTTTAAATGTAATATGATTTTCCATTTACTTATTTATCTTTGTAGTTTTATGACAAAGAAAATTTTCTGAGTTACTTTTGTATCCCCACCCCCTTAAAGAAAGGAGGAAAAACTGTTTCATACAGAAGGCGTTAATTGCA
- GFP and HA reporter gene expression in sleeping beauty constructs ([4]; sleeping beauty constructs): high GFP and HA reporter gene expression

B2: αCD19-HA: secreted scFv derived from monoclonal αCD19 antibody clone B43, six HA epitope tags at C-terminus; SEQ ID NO:39 (protein)
scFv: EVQLVQSGAEVKKPGSSVKVSCKASGYAFSSYWMNWVRQAPGQGLEWMGQIWPGDSDTNYAQKFQGRVTITADESTSTAYMELSSLRSEDTAVYYCARRETTTVGRYYYAMDYWGQGTTVTVSSGGGGSGGGGSGGGGSDIQLTQSPSFLSASVGDRVTITCKASQSVDYSGDSYLNWYQQKPGKAPKLLIYDASNLVSGVPSRFSGSGSGTEFTLTISSLQPEDFATYYCQQSTENPWTFGGGTKLEIK
modifications: 6x HA tag
- HA MFI, HA-tagged αCD19 scFv compared to HA-tagged αCD20 scFv ([5]; HEK supernatant staining of B cells): higher MFIs
- signal strength in tandem (T2A) scFv constructs relative to single scFv constructs [5]: remains unchanged
- signal strength in tandem (T2A) scFv constructs relative to single scFv constructs ([5]; listed as αCD19 scFv): retains similar binding capacity

B3: NBVtf: synthetic transcription factor, fusion of NFAT N-terminus, Bob1 octamer-binding domain and VP16 transactivation domain; SEQ ID NO:76 (protein)
chain: MPSTSFPVPSKFPLGPAAAVFGRGETLGPAPRAGGTMKSAEEEHYGYASSNVSPALPLPTAHSTLPAPCHNLQTSTPGIIPPADHPSGYGAALDGGPAGYFLSSGHTRPDGAPALESPRIEITSCLGLYHNNNQFFHDVEVEDVLPSSKRSPSTATLSLPSLEAYRDPSCLSPASSLSSRSCNSEASSYESNYSYPYASPQTSPWQSPCVSPKTTDPEEGFPRGLGACTLLGSPRHSPSTSPRASVTEESWLGARSSRPASPCNKRKYSLNGRQPPYSPHHSPTPSPHGSPRVSVTDDSWLGNTTQYTSSAIVAAINALTTDSSLDLGDGVPVKSRKTTLEQPPSVALKVEPVGEDLGSPPPPADFAPEDYSSFQHIRKGGFCDQYLAVPQHPYQWAKPKPLSPTSYMSPTLPALDWQLPGSTSGSGKPGSGEGSTKGMLWQKPTAPEQAPAPARPYQGVRVKEPVKELLRRKRGHASSGAAPAPTAVVLPHQPLATYTTVGPSCLDMEGSVSAVTEEAALCAGWLSQPGGGGSGGGGSGGGGSTAPPTDVSLGDELHLDGEDVAMAHADALDDFDLDMLGDGDSPGPGFTPHDSAPYGALDMADFEFEQMFTDALGIDEYGG
- reporter gene expression ([4]; Jurkat-P10NBV-TT2 cells, BOLETH cells loaded with 0.01 μM cognate peptide): further improves reporter gene expression
- reporter gene expression ([4]; Jurkat-P10NBV-TT11 cells, BOLETH cells loaded with 0.1 μM cognate peptide): further improves reporter gene expression

B4: OX40L: Flag-tagged surface receptor overexpressed on minigene-transduced B cells; SEQ ID NO:84 (protein)
chain: ERVQPLEENVGNAARPRFERNKLLLVASVIQGLGLLLCFTYICLHFSALQVSHRYPRIQSIKVQFTEYKKEKGFILTSQKEDEIMKVQNNSVIINCDGFYLISLKGYFSQEVNISLHYQKDEEPLFQLKKVRSVNSLMVASLTYKDKVYLNVTTDNTSLDDFHVNGGELILIHQNPGEFCVLGSGAGGSGSGAGGSGDYKDDDDKGAGSGDYKDDDDKGAGSDYKDDDDKGGAGSDYKDDDDKGSGDYKDDDDKGAGSGDYKDDDDKGSGAGGSS
modifications: Flag tag
- minigene-based T cell activation [1]: potentiates minigene-based T cell activation
